Laboratory results from publication PMC3135787.

Experiments:
[1] = substrate: Nc1nc2c(ncn2[C@@H]2O[C@H](COP(=O)(O)O)[C@@H](O)[C@H]2O)c(=O)[nH]1; experiment: hGUK1-mediated phosphorylation, coupled spectrophotometric assay; format: biochemical, human; settings: other: hGUK1, 37°C
Hint1 activity assay = substrate: COc1nc(N)nc2c1ncn2[C@@H]1O[C@H](COP(=O)(O)N[C@@H](C)C(=O)O)[C@@H](O)[C@@]1(C)F; experiment: Hint1 activity assay; format: biochemical; settings: other: Hint1, 37 °C, pH 7.2

B1: Human guanylate kinase (hGUK1) (Homo sapiens) (protein)
chain: MSGPRPVVLSGPSGAGKSTLLKRLLQEHSGIFGFSVSHTTRNPRPGEENGKDYYFVTREVMQRDIAAGDFIEHAEFSGNLYGTSKVAVQAVQAMNRICVLDVDLQGVRNIKATDLRPIYISVQPPSLHVLEQRLRQRNTETEESLVKRLAAAQADMESSKEPGLFDVVIINDSLDQAYAELKEALSEEIKKAQRTGA
B1 showed a Km [1] of 19.1 ± 4.5 µM, a kcat [1] of 74.7 ± 17.6 s⁻¹ and a kcat/Km [1] of 3.9e+06 M⁻¹ s⁻¹.

B2: Hint1 (Homo sapiens) (protein)
chain: MADEIAKAQVARPGGDTIFGKIIRKEIPAKIIFEDDRCLAFHDISPQAPTHFLVIPKKHISQISVAEDDDESLLGHLMIVGKKCAADLGLNKGYRMVVNEGSDGGQSVYHVHLHVLGGRQMHWPPG
With B2 the Km (Hint1 activity assay) was 445 ± 182 µM and the kcat (Hint1 activity assay) was 0.0573 s⁻¹.
